The values that follow come from the RNAGym collection of RNA variant scans (doi:10.7554/elife.80360).

B1: HDV Ribozyme (parent)
chain: GGCCGGCAUGGUCCCAGCCUCCUCGCUGGCGCCGGCUGGGCAACAUUCCGAGGGGACCGUCCCCUCGGUAAUGGCGAAUGGGACCCA

In this series the parent is B1. The experiment in a line: self-cleavage, relative activity (ratio to wild type); higher = more cleavage; co-transcriptional.
For the variant C4U A78G, the self-cleavage amounted to 0.375.

On to C22A U47C, for which the self-cleavage came out at 0.

In the case of A70U G73A, the self-cleavage stood at 0.614.

For the variant A42U G55C, the self-cleavage was found to be 0.87.

As for C24U C84A, the self-cleavage was found to be 0.543.

As for U23C C66G, the self-cleavage amounted to 0.923.

As for C14U A78G, the self-cleavage came to 0.831.

Take G39U G52A: the self-cleavage worked out at 0.772.

Regarding G53C C62A, the self-cleavage was found to be 0.937.

As to G73A C86U, the self-cleavage amounted to 0.831.

As to G76U C84U, the self-cleavage was determined as 1.11.

Take C58U C63G: the self-cleavage was 0.831.

Turning to G11A C84A, the self-cleavage is 0.787.

With G2C A78G, the self-cleavage was 0.0875.

In the case of U23G G81C, the self-cleavage was found to be 0.166.

U27G C58A: the self-cleavage was 0.516.

As to C48U C66U, the self-cleavage came out at 0.947.

For the variant U12G U20G, the self-cleavage was found to be 0.

In the case of G10U G55A, the self-cleavage came out at 0.893.

Consider A51C G76A, for which the self-cleavage was 1.08.

Consider C15A C61A, for which the self-cleavage is 0.831.

On to C26U G59C, for which the self-cleavage came out at 0.935.

Turning to C64U C85A, the self-cleavage was 1.25.

On to G28C G76C, for which the self-cleavage amounted to 0.136.

Take G39C C41G: the self-cleavage stood at 0.462.

As for C44U A78U, the self-cleavage is 0.148.

On to G31A C33A, for which the self-cleavage came to 0.0744.

On to U79C C86G, for which the self-cleavage is 0.284.

As for C36U C61G, the self-cleavage was 0.466.

On to C7G C26G, for which the self-cleavage amounted to 0.369.

In the case of C41A G80U, the self-cleavage was 0.187.

For the variant C3A G38C, the self-cleavage was determined as 0.

For G29A A51U, the self-cleavage stood at 0.277.

For the variant U23C C58A, the self-cleavage is 1.18.

As for U46C C64G, the self-cleavage was determined as 0.875.

Regarding G40A C57U, the self-cleavage came to 1.13.

Consider G10U A83U, for which the self-cleavage stood at 0.177.

For G50A G68U, the self-cleavage came to 0.767.

Regarding C32G G82A, the self-cleavage came to 0.0997.

Regarding G17C G53U, the self-cleavage came out at 0.298.

In the case of G11C A42G, the self-cleavage was 0.161.

Regarding C57G C84U, the self-cleavage came to 0.721.

As for C13U C41A, the self-cleavage was determined as 0.522.

In the case of C61G A78U, the self-cleavage was 0.219.

A45U A71U: the self-cleavage amounted to 1.01.

Regarding U65C C84A, the self-cleavage amounted to 0.773.

As to C24G U79A, the self-cleavage was 0.0898.

As for C30G C44G, the self-cleavage was 0.

For A51U G53U, the self-cleavage came out at 1.11.

For U65G G82C, the self-cleavage worked out at 0.133.

For G29U C57A, the self-cleavage was found to be 0.151.

Take A56U G74U: the self-cleavage came out at 0.718.

As for A42C G74U, the self-cleavage amounted to 0.0733.

Consider G50A C58U, for which the self-cleavage amounted to 0.919.

In the case of G34A G68A, the self-cleavage stood at 0.144.

A70G A78G: the self-cleavage is 0.655.

On to U9C U27C, for which the self-cleavage is 0.554.

G5C C21U: the self-cleavage was determined as 0.0554.

Turning to G38U C75U, the self-cleavage amounted to 0.163.

Regarding G82A C85G, the self-cleavage stood at 0.339.

With G11U G38U, the self-cleavage turned out to be 0.0961.

As to U27C A71C, the self-cleavage was 0.458.

C24G G55C: the self-cleavage was 0.0656.

On to C44G A71C, for which the self-cleavage was determined as 0.76.

With U12A G40C, the self-cleavage came out at 0.219.

On to U20G G34U, for which the self-cleavage was 0.0519.

Take G29C G39C: the self-cleavage amounted to 0.277.

G35C G55U: the self-cleavage was determined as 0.0615.

Consider C63G C86G, for which the self-cleavage came to 0.95.

In the case of A56U U60A, the self-cleavage worked out at 1.13.

As for G31A G54C, the self-cleavage came out at 0.254.

Turning to G35C G59C, the self-cleavage came to 0.424.

C32G U69A: the self-cleavage worked out at 0.148.

As to C7U A8C, the self-cleavage amounted to 0.917.

Take G28C G35C: the self-cleavage turned out to be 0.0554.

Consider G35C C36A, for which the self-cleavage was determined as 0.119.

As for C62U C64G, the self-cleavage was determined as 0.482.

For C58A U69G, the self-cleavage came out at 1.04.

In the case of G38C A56G, the self-cleavage was found to be 0.197.

Take C18G G80U: the self-cleavage came out at 0.0621.

With C4A C64U, the self-cleavage was 0.277.

Regarding C14G A70G, the self-cleavage turned out to be 0.831.

Consider G5C C61A, for which the self-cleavage was found to be 0.432.

With G28C U46G, the self-cleavage is 0.0755.

Consider G38U G67C, for which the self-cleavage is 0.197.

In the case of C7A U47G, the self-cleavage was 0.317.

For G53U U60C, the self-cleavage is 0.923.

For G38U U69G, the self-cleavage is 0.272.

For the variant G2U C85U, the self-cleavage was 0.

In the case of U20G C75G, the self-cleavage amounted to 0.

Take U12G G40A: the self-cleavage is 0.72.

Regarding C19G G25A, the self-cleavage turned out to be 0.113.

In the case of A42U A77C, the self-cleavage amounted to 0.0519.

On to G28C U47A, for which the self-cleavage was 0.0536.

Turning to C48U U79C, the self-cleavage was 0.45.

Turning to G2U C24G, the self-cleavage was 0.0225.

With A70U C86U, the self-cleavage amounted to 1.07.

Turning to C7G U60C, the self-cleavage was 0.383.

For the variant C41G C84A, the self-cleavage turned out to be 0.508.

As to G50U A78G, the self-cleavage was 0.776.

Consider G34C G50A, for which the self-cleavage came to 0.287.

Consider G11U C49U, for which the self-cleavage was found to be 0.386.

As for G2C C86U, the self-cleavage was 0.0779.

Consider C75U G76C, for which the self-cleavage was 0.271.

Take A8G C33G: the self-cleavage came to 0.0755.

Consider G76U A78U, for which the self-cleavage worked out at 0.475.

Turning to G55U C86A, the self-cleavage worked out at 0.911.

Regarding U47G, the self-cleavage stood at 1.09.

With G1U C84A, the self-cleavage was determined as 0.408.

C75G A78U: the self-cleavage came out at 0.0462.

Turning to C14A U79G, the self-cleavage was 0.575.

Take G5U G40C: the self-cleavage was 0.115.

With C32G A51U, the self-cleavage turned out to be 0.128.

A70C A87C: the self-cleavage is 0.831.

With C4U C58G, the self-cleavage is 0.615.

On to G53C C63A, for which the self-cleavage was 1.06.

In the case of G1A U12A, the self-cleavage was found to be 0.0415.

Regarding G34A G76A, the self-cleavage came out at 0.257.

On to G38U C66U, for which the self-cleavage worked out at 0.175.

For G17U G54A, the self-cleavage is 0.326.

Turning to G34A U37G, the self-cleavage was 0.219.

Turning to C4A C7U, the self-cleavage came out at 0.0519.

As to C18U A45C, the self-cleavage came out at 0.0755.

In the case of C19G C41U, the self-cleavage was found to be 0.155.

G10U C44A: the self-cleavage was 0.277.

In the case of C24A G73U, the self-cleavage came out at 0.288.

As to U47C C66U, the self-cleavage was found to be 0.725.

Take C58U C61U: the self-cleavage is 0.954.

In the case of C7U C66A, the self-cleavage worked out at 0.776.

With A45U A77U, the self-cleavage turned out to be 0.322.

G53U C64G: the self-cleavage is 0.62.

With C22A G28U, the self-cleavage stood at 0.106.

As to A71U C85U, the self-cleavage came out at 1.17.

Turning to G38U C41A, the self-cleavage worked out at 0.407.

For the variant G76A U79A, the self-cleavage is 0.831.

Take U23G C57U: the self-cleavage stood at 0.785.

As to C22U G35A, the self-cleavage worked out at 0.109.

Take C49G U79A: the self-cleavage amounted to 0.895.

Consider C41A G52A, for which the self-cleavage was 0.901.

C57A A78U: the self-cleavage is 0.108.

As for C26G C32U, the self-cleavage is 0.743.

As to U72A A83G, the self-cleavage was determined as 0.318.

For C26U G82U, the self-cleavage came to 0.769.

Take G34C G38C: the self-cleavage came out at 0.122.

Consider U20A G80U, for which the self-cleavage amounted to 0.0141.

With C21U G82C, the self-cleavage stood at 0.181.

For G67C G68U, the self-cleavage came out at 0.847.

In the case of A70C C84U, the self-cleavage came to 0.594.

Take U12C U69G: the self-cleavage came out at 0.485.

Take C15G C19U: the self-cleavage stood at 0.0898.

As for C32G A78U, the self-cleavage worked out at 0.0811.

On to A56C, for which the self-cleavage turned out to be 1.

Regarding G50C U69C, the self-cleavage is 1.07.

C3G G40A: the self-cleavage was found to be 0.575.

For G52A U79C, the self-cleavage came out at 0.514.

Turning to G10A G17C, the self-cleavage was determined as 0.341.

Turning to G50U G52A, the self-cleavage turned out to be 0.799.

For C41U A87C, the self-cleavage came out at 1.09.

With C32U G55C, the self-cleavage stood at 0.866.

Take C14U G25U: the self-cleavage was determined as 0.59.

For the variant G2A C44A, the self-cleavage is 0.0875.

For C33A G50U, the self-cleavage is 0.295.

As for C15G U69G, the self-cleavage was found to be 0.256.

G35U G52A: the self-cleavage is 0.483.

As for G6U A77G, the self-cleavage is 0.302.

C33A A56G: the self-cleavage was determined as 0.324.

Consider G6A C44A, for which the self-cleavage is 0.201.
